Results from patent US20230105324A1 (Hoffmann-La Roche, published 2023).
Where a chain is given by its changes, count along the chain named. Read-outs that look alike come from different tables or passages of the source.

B1: bispecific anti-VEGF/anti-PDGF-B Fab fragment RO7113083 (Fab, V domains shown)
VH: DLQLVESGGGLVKPGGSLRLSCAADGWWFGYTDMSWVRQAPGKGLEWVGSISYKGGSTYYNTKFIGRFTISRDDDTNTLYLQMNSLRAEDTAVYYCARDDGYFDTWGQGTLVTVSS
VL: AIYMHQEPSSLSASVGDRVTITCHGSYWLSNYLAWYQQKPGKAPKLLIYDGKEREHGVPSRFSGSGSHEDYTLTISSLQPEDFATYYCQQYRYHPYTFGHGTKVEIKR
notes: also called R07113083
B2: bispecific anti-VEGF/anti-PDGF-B Fab fragment 28.01 (Fab, V domains shown)
VH: B1 VH
VL: B1 VL with Y3H, H5Y
B3: bispecific anti-VEGF/anti-PDGF-B Fab fragment 28.02 (Fab, V domains shown)
VH: B1 VH with S57H, T58K, Y60L
VL: B1 VL with Y3H, H5Y
B4: bispecific anti-VEGF/anti-PDGF-B Fab fragment 28.07 (Fab, V domains shown)
VH: B1 VH with S57H, T58K, Y60L
VL: B1 VL
B5: bispecific anti-VEGF/anti-PDGF-B Fab fragment P1AA9124 (Fab, V domains shown)
VH: B1 VH
VL: B1 VL with Y3Q, H5T, E7S, H100Q, V104L
B6: bispecific anti-VEGF/anti-PDGF-B Fab fragment P1AE2845 (Fab, V domains shown)
VH: EEQLVESGGGLVQPGGSLRLSCAASGWWFEYTDMSWVRQAPGQGLEWVGSISPSGGSTYYNTNFIGRFTISRDDSKNTLYLQMNSLRDEDTAVYYCARDEGYFDEWGQGTLVTVSS
VL: AIQMTQSPSSLSASVGDRVTITCQASYWLHKYLAWYQQKPGQAPKLLIYDASELEYGVPDRFSGSGSGTDFTLTISSLEPEDFAVYYCQNYRYHPYTFGQGTKLEIKR
notes: DutaFab: one VH/VL pair carries both paratopes; Expressed in E. coli TG1

What was measured:
human PDGF-BB [1] = target: T1, human PDGF-BB (human); assay: SPR, Fab fragment; assay format for PDGF not described
T1 construct: The ELISA text names human PDGF-BB of Cell Signaling, Cat. No 8921BF
T1 chain: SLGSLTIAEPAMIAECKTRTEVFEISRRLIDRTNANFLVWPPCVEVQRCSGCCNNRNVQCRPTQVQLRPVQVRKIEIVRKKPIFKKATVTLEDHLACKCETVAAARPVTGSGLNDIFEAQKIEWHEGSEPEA

human PDGF-BB [2] = target: T1, human PDGF-BB; assay: as above
cynomolgus PDGF = target: T2, cynomolgus PDGF (cynomolgus); assay: as above
T2 construct: Printed only as cynomolgus PDGF

minipig PDGF = target: T3, minipig PDGF (minipig); assay: as above
T3 construct: Printed only as minipig PDGF; also called Minpig PDGF
T3 sequence (P20034 whole entry, looked up): SLGSPAVAEPAVIAE

rabbit PDGF = target: T4, rabbit PDGF (rabbit); assay: as above
T4 construct: Printed only as rabbit PDGF

human VEGF121-His [3] = target: T5, human VEGF121-His (human, UniProt P15692 207-395); assay: SPR, VEGF121-His captured via anti-His antibody on C1 chip, Fab as analyte, single cycle kinetics
T5 construct: Captured by an anti-His antibody on the chip; not shown: His tag
T5 sequence: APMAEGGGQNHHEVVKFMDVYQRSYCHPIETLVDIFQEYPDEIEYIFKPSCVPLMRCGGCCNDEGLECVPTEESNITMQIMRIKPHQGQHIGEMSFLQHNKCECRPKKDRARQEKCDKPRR
Protocol: (§1) An anti-His capturing antibody (GE Healthcare 28995056) was immobilized to a Series S Sensor Chip C1 (GE Healthcare 29104990) using standard amine coupling chemistry resulting in a surface densitiy of approximately 500 resonance units (RU). As running and dilution buffer, HBS-P+ (10 mM HEPES, 150 mM NaCl pH 7.4, 0.05% Surfactant P20) was used. […] The surface was regenerated by injecting 10 mM Glycine pH 1.5 for 60s. […] Curve fitting was performed using the 1:1 Langmuir binding model within the Biacore evaluation software. To provide more robust fitting, the Multiple Rmax option was chosen for global fitting using both ligand densities.

human PDGF-BB [4] = target: T1, human PDGF-BB; assay: SPR, Fab fragment; assay format for PDGF not described
human VEGF121-His [5] = target: T5, human VEGF121-His; assay: SPR, VEGF121-His captured via anti-His antibody on C1 chip, Fab as analyte, single cycle kinetics; remark: listed apart in the source
Protocol: as §1

Binder	Kd (human PDGF-BB [1])	t½ (human PDGF-BB [1])	Kd (human PDGF-BB [2])	t½ (human PDGF-BB [2])	Kd (cynomolgus PDGF)	t½ (cynomolgus PDGF)	Kd (minipig PDGF)	t½ (minipig PDGF)	Kd (rabbit PDGF)	t½ (rabbit PDGF)	koff (human PDGF-BB [2])	kon (human PDGF-BB [2])	koff (minipig PDGF)	kon (minipig PDGF)	koff (rabbit PDGF)	kon (rabbit PDGF)	Kd (human VEGF121-His [3])	koff (human VEGF121-His [3])	kon (human VEGF121-His [3])	t½ (human VEGF121-His [3])	other results
B1	1 nM	90 min	1.3 nM	25 min	0.7 nM	53 min	0.3 nM	59 min	0.6 nM	59 min											
B2			1.3 nM	26 min	0.6 nM	54 min	0.3 nM	69 min	0.6 nM	67 min											
B3			1.3 nM	24 min			0.4 nM	54 min	0.7 nM	53 min	0.000485 s⁻¹	368000 M⁻¹ s⁻¹	0.000215 s⁻¹	605000 M⁻¹ s⁻¹	0.000218 s⁻¹	325000 M⁻¹ s⁻¹	0.007 nM	1.15e-05 s⁻¹	1.56e+06 M⁻¹ s⁻¹	1010 min	
B4			1.4 nM	24 min	0.6 nM	54 min	0.3 nM	51 min	0.7 nM	52 min	0.000483 s⁻¹	357000 M⁻¹ s⁻¹	0.000225 s⁻¹	646000 M⁻¹ s⁻¹	0.000223 s⁻¹	337000 M⁻¹ s⁻¹	0.012 nM	1.73e-05 s⁻¹	1.4e+06 M⁻¹ s⁻¹	668 min	koff (cynomolgus PDGF): 0.000215 s⁻¹; kon (cynomolgus PDGF): 336000 M⁻¹ s⁻¹
B5	1 nM	44 min		24 min	0.6 nM	52 min	0.4 nM	48 min	0.7 nM	48 min											
B6	95 nM	0.1 min															0.13 nM	6.54e-05 s⁻¹	503000 M⁻¹ s⁻¹	177 min	Kd (human PDGF-BB [4]): 95 nM; koff (human PDGF-BB [4]): 0.0779 s⁻¹; kon (human PDGF-BB [4]): 824000 M⁻¹ s⁻¹; t½ (human PDGF-BB [4]): 0.1 min; koff (human PDGF-BB [1]): 0.0779 s⁻¹; kon (human PDGF-BB [1]): 824000 M⁻¹ s⁻¹; Kd (human VEGF121-His [5]): 0.13 nM; koff (human VEGF121-His [5]): 6.54e-05 s⁻¹; kon (human VEGF121-His [5]): 503000 M⁻¹ s⁻¹; t½ (human VEGF121-His [5]): 177 min
